Reference: PMC5655238

Biological target: Bcl-2 (UniProt P10415)
Assay: anti-HA IP, Bcl-2 blot
Details: reference: HA-Beclin-1 wild type; sites T119

binding against the reference: stronger
Substance: Beclin-1 (from UniProt Q14457) HA-Beclin-1 T119A
